Earlier results on one substance are cited in publication PMC4245983.

Where two headings read alike, the source gives them in different places.

Series [1] concerns the target IscU (Escherichia coli) (UniProt P0ACD4). Conditions: cited from earlier work.
The target is the same in series [2]. As to conditions: cited from earlier work. The source holds these as a separate data set.

Sequence of HscA (P0A6Z1 whole entry): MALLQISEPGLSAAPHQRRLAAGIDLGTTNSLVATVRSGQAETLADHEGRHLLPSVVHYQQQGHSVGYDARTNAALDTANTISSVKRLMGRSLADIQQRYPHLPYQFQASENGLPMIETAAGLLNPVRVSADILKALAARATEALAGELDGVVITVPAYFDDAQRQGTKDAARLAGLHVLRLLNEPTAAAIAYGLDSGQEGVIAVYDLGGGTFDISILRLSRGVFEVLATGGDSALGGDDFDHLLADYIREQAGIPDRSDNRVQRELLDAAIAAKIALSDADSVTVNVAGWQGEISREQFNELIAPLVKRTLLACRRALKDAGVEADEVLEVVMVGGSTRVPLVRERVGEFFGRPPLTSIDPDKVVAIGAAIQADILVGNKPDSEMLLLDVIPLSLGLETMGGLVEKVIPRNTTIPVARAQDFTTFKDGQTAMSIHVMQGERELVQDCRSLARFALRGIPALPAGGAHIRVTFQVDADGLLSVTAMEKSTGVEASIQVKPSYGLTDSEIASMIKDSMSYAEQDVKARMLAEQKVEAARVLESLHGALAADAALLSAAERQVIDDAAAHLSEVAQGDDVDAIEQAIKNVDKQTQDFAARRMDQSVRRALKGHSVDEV
Sequence of IscU (Escherichia coli) (P0ACD4 whole entry): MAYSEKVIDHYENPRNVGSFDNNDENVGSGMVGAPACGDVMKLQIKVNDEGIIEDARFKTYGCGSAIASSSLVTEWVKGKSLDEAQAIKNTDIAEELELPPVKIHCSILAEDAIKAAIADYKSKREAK

HscA (from UniProt P0A6Z1): the dissociation constant (Kd) (as a rule, the free concentration of one partner at which half of the binding sites on the other are occupied at equilibrium, for simple one-to-one binding) in series [1] is 37 µM; in series [2] it was 1.6 µM.
